Data as given in the DeepSol protein solubility set.

Assay: soluble on expression in E. coli; label from the status in PepcDB or PDB records

Sequence | soluble on expression in E. coli
MKRVFGILVCFMLLLSGTSVSFAQSEKTKQDKTEETTPKLAEQASSAIVIEQDTGKVLFDKNPNEKLPPASMTKIMTMLLIMEQVEKGKLKLTDKVRASEHAASMGGSQIFLEPGEEMTVNEMLKGIAIASGNDASVAVAEHIAGSEEGFVNMMNKKAKDLGLKNTHFQNPTGLPAKDHYSTANDMAIMAKELMKYPLIRKYTGKYEDYLREDTDKKFWLVNTNKLVRFYPGVDGVKTGFTTEAKYCLTASAEKNGMRVISVVMGAPTSKERNNQVTKLLDYAFGQYMTKKLYTRGEKIKTVQVGKGKKEKVDLVASDNVSLLMKKGENMDKVKQEVIAEKKVKAPIKKGDALGTLVIKKDKDVLLKQTIVAKEDVAAASWWELFKRSFGMFSTSK | not soluble
MRLLIVLSALLIPCLAQLSEDSSELEFGGQQAQRPSPDGPLFPRFLMHVPRFARKEFFDIVSNDQLSQDQQNEQLTIWAKAFNVTDEFNAWTKKIQEQKEAVSKNVEAVASNITTVYTQLEEILSNSNLTRRDQHDQIRKLATTFPREVRALFFIARNYRPEGRSPIFGQGIGMGKKPQSSMVPFIFQQQQPPMMMFGQQPFMPAGPMMMNRFQQTGSQQNFQSRRGGRGDGPGFVPGTQDNNQRGSGERGQRQNFGPSDNLTNGNQFSKKQFARGPSSMNSDLSENSQHSDSNSQFDFPRGPGGRGGRGQGPDFGPGGQGGRGQGPDFGPQDDFPGRRGSGGPGGRGGRGQGPDFEPQDDFPGRRGSGGPGRRGGRGQGPDFGPQDDFPGRRGSGGPGGRGGRGQGPDFGPGRQGGRGQGPDFGPQDDFSGRRGSGGPGGRGGRGQEPDFGPGGQGGRGQGPDFGPQDDFPGRRGSGGPEGRDGRGQGPDFGPGSQGGRGQDSDSGSQDAFPGRRGSGGPGGRGQGPDFGPQDDFPGRRGSGGPEGRDGRGQGPDFGPGSQGGRGQDSDSGSQDAFPGRRGPGGPGGLGGRGQGPDFGPGGQGDRGQGPDFGARSQGNRGQGPAFESRQPRQFDDADTSSAPSQKYFQRQMNSGMRFDQSSGFGMRKSQSTQQNYENFAEN | not soluble
MALFSPYALGATLYMPATRDDIVDVVFGEKIPELRSLVVCLEDAVALIDVDTALLNLRQVLTRIHDRGGRPANGPLLFVRPRDAAMARILNDWPLMAHVDGFVVPKLSLKSLTSWEEAVTNPALALMPTLETPEVFNPTAMVELGQALKASLHERIIALRIGGNDLMGCLGLRRNPAMTLYSTPMGYVIPMLAGVMGAQGFALTAPVFEQLATPDILEQELALDITNGLVGKTAIHPSQVNIIQNALRVSLEDMNSARMILNSVAPAVFKYNDAMCEPATHYKWATHIMERAKWHGVLPTPASIMDASIRLAEAVSLEHHHHHH | soluble
AGLENTDHTNNEHRLTQLLSIAEECETLDRLKQLVDSGRIFTAYNGFEPSGRIHIAQALITVMNTNNMIECGGQMIIYIADWFAKMNLKMNGDINKIRELGRYFIEVFKACGINLDGTRFIWASEFIASNPSYIERMLDIAEFSTISRVKRCCQIMGRNESDCLKASQIFYPCMQAADVFELVPEGIDICQLGIDQRKVNMLAIEYANDRGLKIPISLSHHMLMSLSGPKKKMSKSDPQGAIFMDDTEQEVSEKISRAYCTDETFDNPIFEYIKYLLLRWFGTLNLCGKIYTDIESIQEDFSSMNKRELKTDVANYINTIIDLVREHFKKPELSELLSNVKSYQQPSK | soluble
VKDISMENLKKIFLGEVTNWKELGGKDQKIVILNRAAGSGTRATFEKWVLGDKTAIRAQEQDSSGMVRSIVSDTPGAISYTAFSYVTDEVATLSIDGVQPTDENVMNNKWIIWSYEHMYTRKNP | not soluble
MLSVIIITKNEEANIRRCLESVHFADEIIVLDSGSTDNTLAIAREYTDKVFSTDWQGYGIQKDRALQKAQGDWVLNLDADESVSSELRQEILQAISSDTADAFRIPIQMIFYNQVLKYSGSPKRHIRLFKRENASYSKDIVHEKVLIPVNARVGKLKKPIWHHSFSDVHHVLYKLNKYSSYSAKIRIESNEKVGLVKTFFSALWMFVRCLFLQKGFLDGRAGFLFAVFGAQGAFYRGVKQIYKDRDINKLPSVNHIKEELEHHHHHH | soluble
MNQWRVIHNKSYEGAMNMAIDEAIFTAYKKGHNKPTLRFYTWEPACLSIGYFQKLEDEIDLDKCRCMNIDYTRRITGGRAVLHDNELTYSIIIGEDNPLIDKSINLSYRYISEGLVKGLNLSGIETDNLNRGERISRENLSAACFNAHASYEVTINNKKVIGSAQSRKDGVLLQHGSIILDFDVEKLFKLIKTKTPELKERAMKFTAKKASGIENEIGRKIDIDILQKNIVKGLAEQFNVEFVEGDLTDYEKQLVKELYEKYKNEEYN | not soluble
MGSDKIHHHHHHMKVDLCARKQADAQASVGIIQREGGTARAYQCDIANPDSVRDFSVQLLEDSTPVDILVLSAAQWLEGALGEEDTDTDIVSTINSGLTGSILLTKTLLPSLRRSQSADILAMISVCGVPQFHDSIAHPAFFAAKHGLSGFSQNLAHHVAQENIRVTGFYPPDFEVTGFDDYPASGEKMGEHLLNARSIWETMRFVLTQPRSCHINAIHFQGPTRTDIGPY | not soluble
MGSDKIHHHHHHMFIINELNKIVNEEVISFHMPGHKKGQVYKKLGYKDILKNLYKMDTTEILGTDNLHFPEGIIKNSQKKASRVFKSDYTCYLVNGSSCGIQSAIMSVCSPKSKIITNRDCHQSVINGCILGDIDIEYVPCEISEETNVLKGISISNVIDIIDKNLDAKAVLLTYPTYYGMTYDLEYICNYAHSKKMVVIVDEAHGAHLGLSERLPKTALEQGADIVVQSTHKTLPAFTQSSMIHIQGDRVDIDKILNMLRITESSSPSYLLLSSLELAVDIYENKGKELMEELLNNIITFKNKVDSNINIYDTNDKTKIFISSKNMGLTGYELENILRNKYNIQVELSNYYGVLLICTIGNTAEDFSSLETALNNVVKEDFKFEKLENKKYPVVIPKKILTPREAFYKTKKSVKIYDSIGKVCGECIVPYPPGISVISPGEVISKEIIDYLMFCHSKGMIVSGLKDVDLNFIQVIDLEDI | not soluble
FDKLGNSAAIQEMNREVEAAAKRTSPVFLTGEAGSPFETVARYFHKNGTPWVSPARVEYLIDMPMELLQKAEGGVLYVGDIAQYSRNIQTGITFIIGKAERCRVRVIASCSYAAGSDGISCEEKLAGLFSESVVRIPPLS | soluble
MVVVEQIKSQKIHGCQILETVYKHSCGGLPPVRSALEKILAVCHGVMYKQLSAWMLHGLLLDQHEEFFIKQGPSSGNVSAQPEEDEEDLGIGGLTGKQLRELQDLRLIEEENMLAPSLKQFSLRVEILPSYIPVRVAEKILFVGESVQMFENQNVNLTRKGSILKNQEDTFAAELHRLKQQPLFSLVDFEQVVDRIRSTVAEHLWKLMVEESDLLGQLKIIKDFYLLGRGELFQAFIDTAQHMLKTPPTAVTEHDVNVAFQQSAHKVLLDDDNLLPLLHLTIEYHGKEHKADATQAREGPSRETSPREAPASGWAALGLSYKVQWPLHILFTPAVLEKNRQF | soluble
MGSDKIHHHHHHMTEEVPSMDTAPSVGDVREYWNRNPLLSHELASPGSPAFFASLDTAKREDSDRFAMDYWEFGQWAGQRVLDIGCGPGWLTVQYARGGAQVDSVDLTPRAVELAQAHLALHGQSATVREGNAEELPFPDDQFDLVAASGVLHHTPDTQATFREAFRVTKPGGQGKITLYRKGILHHPAVFAMTRIAMRLFGVKHPGADLGKNSSDVDDFIRRYDGDGNPVGIGKTDADWAADLAAAGWVVQGHEVHFFPRRFLPCARLIPVWLHEFLDTRLGTMVYFRLRKPIISGK | not soluble
MQIIRRLMFVVALICPLITQAEPQVAKLYQRELTRNSYAIGGLNAPVALFAAQVHQESQWNVTALSHVGAQGLAQFMPQTANWIATQYPELKTNQPFNPSWALRALVRYDYWLYQRIHAVTDCDRWAFALSAYNGGLGWVQRDKRKARIQGLDPMSYWHAVESVNSGRSRANFIENRGYPKRIIYRWQPLYLHWGNSVCLDD | not soluble
MLTIAHRLQRESISSGRHSSRISAVFSSPIRASSESRSQHAASSSSSIVSRPESVDEDEEEDGVWPSVTSGGVLVGCACSNSSLTRNESIVVSEGSQALYIASAATAMNGDSVRRRGGDAPDDDEAAGAAPVPAEECNLDALFERFFGDGGADAIRFEPMLPRVYELTLPSIDSRLNFINVGRRHAAFLRHVYGGCDRCEHAAVLNEKMKLFTAVITKLLDVNGILERRETTD | not soluble
MGSDKIHHHHHHMDTLFTINACKTFGCRNLGLPSAAEYHFPNFRLGYPALYCAACGSYPPLFNEREFRPWLAAYLTDHARRYGYFCPVCYQRDIIRYGRNPQGTQRLQCRHCKKVWTPKFPHIAPIEAPRRICSVPLIAPFQGNAAGQKLYFLLSFDAVRGNVIHLTSNFTPFAVGESLRYRWRGGQADREETDDIIQRISLTEMRFLQRSQFDEIQYGSAMQKRHARGNILRPVIAAHGHFKLLSQRFPEVKTHVIAHECFLRGAAIVAWAPLFRQRQGDLWYVEEEIRNPASPAPWQLLGKTHHGWWQNSWQRWTQEENQKMVCRLAGTVEENAFLPDLAASRRFTIWLKNRPAFAQSALYSAGRVTQIVASLVQEYNATLTAAAPGG | not soluble
MSLERLIPIIAPQVPEKPLLNDSLGSGIGCSATLGRSTKFEDNFMCLKQDNVLFVGVFDGHAGHESALISAECFTKILPSFDFTNAIHQKNPEKDEENIQKFDFPKVENHLSPRRNHFRNVKTQENQIFGSQKIETKNIKNTQKIELKNSEKIELENSKGSENLNTKLIKTYLRMAFAQVNDELRNRKVKDGTTAVVVCLFENRKGAVAHVGDSLALLVGQTTSKLLTKMHRPSDKDEFYRMRKRNKSVSSDWKVDGKLSVSRSLGDFWCCGGMFDDADVSFFDLNDDALSIVLGCDGLWDYVDEGTVCNVVRELRDPVKAAKLLQDIAFASGSHDSISVIVVNVEPTEGHHHHHH | soluble
MIKATDRKLVVGLEIGTAKVAALVGEVLPDGMVNIIGVGSCPSRGMDKGGVNDLESVVKCVQRAIDQAELMADCQISSVYLALSGKHISCQNEIGMVPISEEEVTQEDVENVVHTAKSVRVRDEHRVLHVIPQEYAIDYQEGIKNPVGLSGVRMQAKVHLITCHNDMAKNIVKAVERCGLKVDQLIFAGLAASYSVLTEDERELGVCVVDIGGGTMDIAVYTGGALRHTKVIPYAGNVVTSDIAYAFGTPPSDAEAIKVRHGCALGSIVGKDESVEVPSVGGRPPRSLQRQTLAEVIEPRYTELLNLVNEEILQLQEQLRQQGVKHHLAAGIVLTGGAAQIEGLAACAQRVFHTQVRIGAPLNITGLTDYAQEPYYSTAVGLLHYGKESHLNGEAEVEKRVTASVGSWIKRLNSWLRKEF | not soluble
INTVNLINQMKTLAAQAEGIKPDSGLNHASFSSVFQQALNQVNELSQTADSLKTRFEIGDPNVSLGEVMIASQKSNLGFEATLRVRNKLVQAYQDIMNMPV | not soluble
SPGQGTQSENSCTHFPGNLPNMLRDLRDAFSRVKTFFQMKDQLDNLLLKESLLEDFKGYLGCQALSEMIQFYLEEVMPQAENQDPDIKAHVNSLGENLKTLRLRLRRCHRFLPCENKSKAVEQVKNAFNKLQEKGIYKAMSEFDIFINYIEAYMTMKIRN | soluble
WQENMLIPMMAINEDNLWVHQKYGYAIPRRNGKTEVVYILELWALHKGLKILHTAHRISTSHSSFEKVKKYLEMSGYVDGEDFISNKAKGQERIEFKSSGSVIQFRTRTSNGGLGEGFDLLIIDEAQEYTAEQESALKYTVTDSDNPMTIMCGTPPTMVSTGTVFESYRKECLKGDRRYSGWAEWSVDEMQPIHDVKSWYVANPSMGYHLNERKIEAELGEDEIDHNIQRLGYWPSFNQKSVISEKEWAKLKVEQVPELKSKLFVGIKFGQDGNNVSLSIAARASENKVFVEAIDCLSVRNGTQWIINFLKSADIAKVVVDGASGQELLAQEMREHGLKKPELPKVAEIITANTMWEQGIMQETICHNDQPSLTAVVTNCEKRQIGSNGGFGYKSLYDDRDISLMDSALLAHWICYTTKPKRKQRTSC | not soluble
